Measured values reported in paper PMC11518995.

Target: mTOR with the cancer-associated 1455-EWED-1458 duplication, as the mTOR subunit of mTORC1_EWEDdup (human) (UniProt P42345)
Test: cryo-EM structure; mTORC1_EWEDdup co-expressed and purified as a complex; 1 uM with 20 uM 4EBP1 and 1 mM AMPPNP, cross-linked with 0.2 mM BS3 and 0.03% glutaraldehyde, glycerol gradient, Superose 6; 50 mM HEPES pH 7.5, 250 mM NaCl, 5 mM MgCl2, 1 mM TCEP

mTOR with the cancer-associated 1455-EWED-1458 duplication, as the mTOR subunit of mTORC1_EWEDdup, P42345 1-2549
stoichiometry N: 2
